{"source": "the DeepSol protein solubility set"}
{"assay": "soluble on expression in E. coli; label from the status in PepcDB or PDB records"}
{"sequence": "MGSPTAEELTGCLFFSPDDGRIWLNDQRMLLLHSSSFGTLRREIIERLGQEPARGMFTRAGYLSGARDARLIRERWPLADATSAFRAGTHLHTLEGMAKVESLHFKFDAESGFYEGEFLWHNSCEADEHLAACGTGQDPVCWTEIGYAIGFVSGLFGQMVIFREVECRGMGHASCRVIGKTAEQWGDVERDLSYLSVAKTVAPAHTPALANAHYDAGPPTGTDQPLIGASAAFNAATQALQRVAMTPATVLISGESGVGKEMFARQLHQLSRNREGPFVALNCAAIPDNLIEAELFGVERGAYTGATHSRPGRFERANGGTLFLDEITSLSLAGQSKLLRALQEREIERVGGGHGIKVNVRVVAATNVDLRKAVAEGDFREDLFYRLNVYPIALPPLRERRDDIPLLINAFLQRFCHEYGRTPAGLTMRALKTLLRYDFAGNVRELQNLIERGLIASDEGQAIDLVHIFRNESLPVDSYSLNHDGALSKAAPPIAHTAQGAALLDTLSQEKQAFSIEELEQQLIREALEKSAGNLAAASRLLGLSRAQFA", "soluble on expression in E. coli": "not soluble"}
{"sequence": "MGSQAIEAHREGAEVYHGAALCAEKAVELLAEIHMPLGLLPLAEMEEVGYNRATGFVWLRQKKAITHTFKQISRQVSFAAEVTAFVEDRRMKRVTGAKTKELLIWVSLSDMFIDKDDASKITFKTPTGLGRTYPVDAFAKEDDGKGKVPAAAAAANGKETAVNGKAK", "soluble on expression in E. coli": "soluble"}
{"sequence": "MGSRIMHVIIANGIAEKLSIHDKTSFLLGAVAPDAVHSKKEKGTSHFYAGTTKNYTRRIDYDSFFHKYESHINSPFILGYYTHLIADDNWLSGFFLPWLKNRIENDETIAPLYYNDFKLLNAKLLHHYDQEQQLFSLLNQEAHIVDIEEVSKENVLAFRKYLFEDMLYPKQYLHEDLQVFTFDQIVGYIETAIEKGVFFIKQLSNEKSTSKI", "soluble on expression in E. coli": "not soluble"}
{"sequence": "MGSSESIVKLNVGGTVFVTLKSTLTKHHGIFKALVKTEMPAEDGDSFFIDRSPKHFETVLNYIRSGDVDLPDSENELKELKREAEYYSLEKLATLCQSSMPKIKSYKTADELLNMIANTKKVVVVIHYLAYKNQLHTIPLGFKFSEFVERNKDKAEVFIYEIKDEEELKDKPYVDDPNRVWSFCIFNSEWSENYPLKSLRDIQVQLDCFGDF", "soluble on expression in E. coli": "not soluble"}
{"sequence": "MGSSHHHHHHGSSNILIINGAKKFAHSNGQLNDTLTEVADGTLRDLGHDVRIVRADSDYDVKAEVQNFLWADVVIWQMPGWWMGAPWTVKKYIDDVFTEGHGTLYASDGRTRKDPSKKYGSGGLVQGKKYMLSLTWNAPMEAFTEKDQFFHGVGVDGVYLPFHKANQFLGMEPLPTFIANDVIKMPDVPRYTEEYRKHLVEIFG", "soluble on expression in E. coli": "soluble"}
{"sequence": "MGSSHHHHHHMDRYEIKGVDVASYQGDIDWRELEKQNMKFAFIKATEGSAFVDKYFSKNWTNANKTSMRVGAYHFFSFDSKGETQAEQFIRNVPKYKQALPPVIDVEFYANKKDNPPKREDVTKELSVMIEMLEKHYGKKVILYATQEAYDLYIKDAYPQCDIWIRSVLTKPSLSDERKWTFWQYTNRGKLSGYNGKEKYIDLNVFYGNEEEFENYGMKD", "soluble on expression in E. coli": "soluble"}
{"sequence": "MGSSHHHHHHSSGLVPRGSHMDKGKSVKSTEKSVGMPPKTPKTDNNAHVDNEFLILQVNDAVFPIGSYTHSFGLETYIQQKKVTNKESALEYLKANLSSQFLYTEMLSLKLTYESALQQDLKKILGVEEVIMLSTSPMELRLANQKLGNRFIKTLQAMNELDMGEFFNAYAQKTKDPTHATSYGVFAASLGIELKKALRHYLYAQTSNMVINCVKSVPLSQNDGQKILLSLQSPFNQLIEKTLELDESHLCTASVQNDIKAMQHESLYSRLYMS", "soluble on expression in E. coli": "soluble"}
{"sequence": "MGSSHHHHHHSSGLVPRGSHMHMQVTLQVTPPCTQERHYEHLGRCCSRCEPGKYLSSKCTPTSDSVCLPCGPDEYLDTWNEEDKCLLHKVCDAGKALVAVDPGNHTAPRRCACTAGYHWNSDCECCRRNTECAPGFGAQHPLQLNKDTVCTPCLLGFFSDVFSSTDKCKPWTNCTLLGKLEAHQGTTESDVVCSSSMTLRRPPKEAQALEHHHHHH", "soluble on expression in E. coli": "soluble"}
{"sequence": "MGSSHHHHHHSSGLVPRGSHMKAIALISGGKDSFLSAYIAMQQGFDIVRAMIVRPQEYSYMFHFPNVDKAGYVAGMLGIEPEFVLEDGFQQRVKEYASDGVKAIVSGAIASEFQKTRLERIATEFSIISYTPLWKVDQHRVMRDILDAGIRAMIVSVSAEGFSENDLGREIDDKYLERLYHLEKRYGINITGEGGEYETFVFGFGNKYISVKGHRIWKGSGGYFNIDSVEERPDSC", "soluble on expression in E. coli": "soluble"}
{"sequence": "MGSSHHHHHHSSGLVPRGSHMQKPIKKDPNRYHGEKMTEFSEWFHNILEEAEIIDQRYPVKGMHVWMPHGFMIRKNTLKILRRILDRDHEEVLFPLLVPEDELAKEAIHVKGFEDEVYWVTHGGLSKLQRKLALRPTSETVMYPMFALWVRSHTDLPMRFYQVVNTFRYETKHTRPLIRVREITTFKEAHTIHATASEAEEQVERAVEIYKEFFNSLGIPYLITRRPPWDKFPGSEYTVAFDTLMPDGKTLQIGTVHNLGQTFARTFEIKFETPEGDHEYVHQTCYGLSDRVIASVIAIHGDESGLCLPPDVAAHQVVIVPIIFKKAAEEVMEACRELRSRLEAAGFRVHLDDRDIRAGRKYYEWEMRGVPLRVEIGPRDLEKGAAVISRRDTGEKVTADLQGIEETLRELMKDILENLRTRAWERMESEIREAETLEEASRIVDEKRGIISFMWCGEEECGMDVEEKVRVDILGIQEEGSGTCINCGREAPYRAYLARTY", "soluble on expression in E. coli": "soluble"}
{"sequence": "MGSSHHHHHHSSGLVPRGSHMRIAIVVPYLAKVEGNKIALILASKLAKNNEVFVVSYAVKDSIIDEVNSLISPAKFFYQKAISNGRYGIRFAIKYQLLKGVDRKMANLLKALMPLDIYLVISNEGHWIPIYFDKAYGTKSALVVMELHDHGFISAGNDPLRFPILRTVLASPAYGLAKVIEYKRFKSFDILFANSKWTQIVFQYLYGLPVSGILFGIDTEVFKPTPSKFSEMNFIAVPTISLKKDYYGRRLISKLAKDGIPLLSYGPIKIEGVKHLGYLSQDEMVKILSAAKATLFLFNYEALGLIPFESLACGTPVITYPKQGPLVELSDNPNVIYFREYEELLKNCRLHLNSAKDEMTINKCRESVLKYDISKVSVDVEQLFQTIIFNKNKS", "soluble on expression in E. coli": "soluble"}
{"sequence": "MGSSHHHHHHSSGLVPRGSHMTVEQTPENPGTAARAAAEETVNDILQGAWKARAIHVAVELGVPELLQEGPRTATALAEATGAHEQTLRRLLRLLATVGVFDDLGHDDLFAQNALSAVLLPDPASPVATDARFQAAPWHWRAWEQLTHSVRTGEASFDVANGTSFWQLTHEDPKARELFNRAMGSVSLTEAGQVAAAYDFSGAATAVDIGGGRGSLMAAVLDAFPGLRGTLLERPPVAEEARELLTGRGLADRCEILPGDFFETIPDGADVYLIKHVLHDWDDDDVVRILRRIATAMKPDSRLLVIDNLIDERPAASTLFVDLLLLVLVGGAERSESEFAALLEKSGLRVERSLPCGAGPVRIVEIRRA", "soluble on expression in E. coli": "soluble"}
{"sequence": "MGSSHHHHHHSSGLVPRGSHMYHHYHAFQGRKLTDQERARVLEFQDSIHYSPRYSDDNYEYRHVMLPKAMLKVIPSDYFNSEVGTLRILTEDEWRGLGITQSLGWEHYECHAPEPHILLFKRPLNYEAELRAATAAAQQQQQQQQQQQQQQQQHQTQSISNDMQVPPQIS", "soluble on expression in E. coli": "soluble"}
{"sequence": "MGSSHHHHHHSSGLVPRSHMEQLEEDCVHRYGVNAFVLYRLPVVKEGMVVGIVGPNGTGKSTAVKILAGQLIPNLCGDNDSWDGVIRAFRGNELQNYFEKLKNGEIRPVVKPQYVDLIPKAVKGKVIELLKKADETGKLEEVVKALELENVLEREIQHLSGGELQRVAIAAALLRNATFYFFDEPSSYLDIRQRLNAARAIRRLSEEGKSVLVVEHDLAVLDYLSDIIHVVYGEPGVYGIFSQPKGTRNGINEFLRGYLKDENVRFRPYEIKFTKTGERVEIERETLVTYPRLVKDYGSFRLEVEPGEIKKGEVIGIVGPNGIGKTTFVKMLAGVEEPTEGKIEWDLTVAYKPQYIKADYEGTVYELLSKIDASKLNSNFYKTELLKPLGIIDLYDREVNELSGGELQRVAIAATLLRDADIYLLDEPSAYLDVEQRLAVSRAIRHLMEKNEKTALVVEHDVLMIDYVSDRLMVFEGEPGKYGRALPPMGMREGMNRFLASIGITFRRDPDTGRPRANKEGSVKDREQKEKGEYYYIA", "soluble on expression in E. coli": "soluble"}
{"sequence": "MGSSHHHHHHSSGRENLYFQGHMEKDRKRILITGGAGFVGSHLTDKLMMDGHEVTVVDNFFTGRKRNVEHWIGHENFELINHDVVEPLYIEVDQIYHLASPASPPNYMYNPIKTLKTNTIGTLNMLGLAKRVGARLLLASTSEVYGDPEVHPQSEDYWGHVNPIGPRACYDEGKRVAETMCYAYMKQEGVEVRVARIFNTFGPRMHMNDGRVVSNFILQALQGEPLTVYGSGSQTRAFQYVSDLVNGLVALMNSNVSSPVNLGNPEEHTILEFAQLIKNLVGSGSEIQFLSEAQDDPQKRKPDIKKAKLMLGWEPVVPLEEGLNKAIHYFRKELEYQANNQGS", "soluble on expression in E. coli": "soluble"}
{"sequence": "MGSSHHHHHHSSGRENLYFQGHMRILWILPYSPWPTTSGGKTRQYHLLRSLAARGHRITVLLHSKQPVSAEDRQALEPFLERLVVLPRRPLRSLSTLLAALFAPYPLLASVNGLSAELQRTATELLREPWDVVQVEHSYSFQPYERPLRDAGQPFVLTEHNVESSLGAATYDRLPGWALPFVRYDQWRYRRWERRVMSQAAAVVAVTEKDARQLGAMLGRPVPVVVNGVDCEHFATARPTPEAQRVLFLGNYEYAPNVDAVEWMLDEILPRVWAHCPEARMSVCGYALPAEWAQRWSDPRIEWQGFVPDLLQLQSSSSVFLAALRHGGGSKLKVLEALAAGLPLASTAQGVSGLELRDGEDYLGGESAEQLANAVVRLLQDPAQARALGENGRAYVRRAHDWSVAASQLEQVYAGLAEGAPACA", "soluble on expression in E. coli": "soluble"}
{"sequence": "MGSSHHHHHHSSGRENLYFQGMIYQPDENRYHTMEYRRCGRSGVKLPAISLGLWHNFGDTTRVENSRALLQRAFDLGITHFDLANNYGPPPGSAECNFGRILQEDFLPWRDELIISTKAGYTMWDGPYGDWGSRKYLIASLDQSLKRMGLEYVDIFYHHRPDPETPLKETMKALDHLVRHGKALYVGISNYPADLARQAIDILEDLGTPCLIHQPKYSLFERWVEDGLLALLQEKGVGSIAFSPLAGGQLTDRYLNGIPEDSRAASGSRFLKPEQITADKLEKVRRLNELAARRGQKLSQMALAWVLRNDNVTSVLIGASKPSQIEDAVGMLANRRFSAAECAEIDAILEGRF", "soluble on expression in E. coli": "soluble"}
{"sequence": "MGSSHHHHHHSSGRENLYFQGMTKSKNNPGRGNTIRESNTMKVMEEIREKIRKAIKEGVSLREIEEIILQEAMMEEREAYLEVEDDHKNGTYFRYLGTGDGVLRLRVPRTRKGGFRPKILPEKYERTSPDYEDFLQQLVLSGMTPSQVKAVLAAKGIPYSEIVMNRVAERISNKLKEYKSRELPHDLLALYIDVKIVKVRISESIMERAIYIAIGVDLEGNKFVLDYEVRDREDLDGWKSFLSGLVSRGVSRVDVIVSDDFSGLDRVVSTLFPSSQHQLCITHMVRNLMRVLPDKEKEELMIRVRDLKSSRNVEEGRKAILSLSQLVQPFSPARAKRLLDAADKYCSFLNFPREIRHYLYTNNTSESFNLTLARFEEELGGYFPSLRSLEVYLYVSIHESNSRWKFRPMSVIRHYSYHLKQLHASRFQVSLDEDF", "soluble on expression in E. coli": "soluble"}
{"sequence": "MGSSHHHHHHSSGRENLYFQGVRPAVIAATGLYTPPDSVSNAELVEAFNTYVANFNAANKARIEAGEIEPLQPSSSEFIEKASGIKSRYVVAKPGIVDPDVMRPIIPERSNDELSILAEMAVTAAEQAIERWGKPRERIGAVLCACSNMQRAYPAMAIEVQNALGLGGFAFDMNVACSSATFGLKTAADFVGGGSVDAVLMVNPEICSGHLNFRDRDSHFIFGDVATAAIVERADDAQGGWSILGTKLKTQFSNNIRNNAGFLNRAWPEGRDKADKLFVQQGRKVFKEVVPLVSEMIIEHAREIGIDPHGLKRMWLHQANINMNEIIGRKVLGRDPTRDENVIILDDYANTSSAGSIIAFHKHQDDMAQGDLGLICSFGAGYSAGTVFVQKR", "soluble on expression in E. coli": "soluble"}
